Laboratory results: US20230049752A1 (University of California, published 2023)

Columns and labels:
[1] = target: human Claudin-6 (CLDN6) (human) (UniProt P56747); experiment: FACS, limiting dilution, ARK2 cells
[2] = target: human Claudin-6 (CLDN6) (human) (UniProt P56747); experiment: FACS, limiting dilution, UMUC4 cells
[3] = target: human Claudin-6 (CLDN6) (human) (UniProt P56747); experiment: FACS, limiting dilution, OV90 cells

FACS signal at 0.32 nM [1]	FACS signal at 1.6 nM [1]	FACS signal at 8 nM [1]	FACS signal at 40 nM [1]	FACS signal at 200 nM [1]	FACS signal at 0.32 nM [2]	FACS signal at 1.6 nM [2]	FACS signal at 8 nM [2]	FACS signal at 40 nM [2]	FACS signal at 200 nM [2]	FACS signal at 0.32 nM [3]	FACS signal at 1.6 nM [3]	FACS signal at 8 nM [3]	FACS signal at 40 nM [3]	FACS signal at 200 nM [3]	FACS signal at 1000 nM [3]	FACS signal at 1000 nM [2]	Binder
1310	2080	8850	22900	62300	947	1910	5040	14800	37500	638	1260	4630	14600	38300	83400	–	AB S12 (antibody, V domains shown) VH: QVQLVQSGAEVKKPGASVKMSCKASGYTFTTYTMHWVRQAPGQGLEWIGFINPSSGYTEYAQKFQGRVTLTADKSTSTVYMELSSLRSEDTAVYFCANGDYYVGYWGQGTLVTVSS VL: DIQLTQSPSSLSASVGDRVTMTCTASSSVSSTYFHWYQQKPGKAPKLWIYSTSNLASGVPSRFSGSGSGTDYTLTISSMQPEDAATYYCHQYHRSPLTFGQGTKLEIK
466	1380	3850	25800	62500	639	767	2330	6680	18700	475	668	2390	10500	43500	–	41500	AB S1 (antibody, V domains shown) VH: EVQLLESGGGLVQPGGSMRLSCAASGFTFSNYWMNWVRQAPGKGLEWIAQIRLKSDNYATHYTDSVKGRFTISRDDSKRTVYLQMNSLRAEDTGTYYCSDGPPSGSWGQGTLLTVSS VL: DIQMTQSPSSLSASVGDRVTITCRISENIYSYLAWYQQKPGKAPKLLVYNAKILVEGVPSRFSGSGSGTDFTLTISSLQPEDFGTYYCQHHYTVPWTFGQGTKLEIK
608	956	4840	21000	83400	505	746	2270	6970	20000	537	1510	3950	18100	53400	–	–	AB S2 (antibody, V domains shown) VH: EVQLLESGGGLVQPGGSMRLSCAASGFTFSNYWMNWVRQAPGKGLEWIAQIRLKSDNYATHYADSVKGRFTISRDDSKRTVYLQMNSLRAEDTGTYYCSDGPPSGSWGQGTLLTVSS VL: DIQMTQSPSSLSASVGDRVTITCRISENIYSYLAWYQQKPGKAPKLLVYNAKILVEGVPSRFSGSGSGTDFTLTISSLQPEDFGTYYCQHHYTVPWTFGQGTKLEIK
372	933	4830	24600	83600	533	647	1980	7780	20800	482	1040	4470	19500	63100	–	45300	AB S3 (antibody, V domains shown) VH: EVQLLESGGGLVQPGGSMRLSCAASGFTFSNYWMNWVRQAPGKGLEWIAQIRLKSDNYVTHYTDSVKGRFTISRDDSKRTVYLQMNSLRAEDTGIYYCSDGPPSGSWGQGTLLTVSS VL: DIQMTQSPSSLSASVGDRVTITCRISENIYSYLAWYQQKPGKAPKLLVYNAKILVEGVPSRFSGSGSGTDFTLTISSLQPEDFGTYYCQHHYTVPWTFGQGTKLEIK
